# Measurements from IntAct's records for PubMed 22244754.
# B1: Phosphatidylinositol 3,4,5-trisphosphate 5-phosphatase 2 (Homo sapiens), O15357-1 (parent)
# chain: MASACGAPGPGGALGSQAPSWYHRDLSRAAAEELLARAGRDGSFLVRDSESVAGAFALCVLYQKHVHTYRILPDGEDFLAVQTSQGVPVRRFQTLGELIGLYAQPNQGLVCALLLPVEGEREPDPPDDRDASDGEDEKPPLPPRSGSTSISAPTGPSSPLPAPETPTAPAAESAPNGLSTVSHDYLKGSYGLDLEAVRGGASHLPHLTRTLATSCRRLHSEVDKVLSGLEILSKVFDQQSSPMVTRLLQQQNLPQTGEQELESLVLKLSVLKDFLSGIQKKALKALQDMSSTAPPAPQPSTRKAKTIPVQAFEVKLDVTLGDLTKIGKSQKFTLSVDVEGGRLVLLRRQRDSQEDWTTFTHDRIRQLIKSQRVQNKLGVVFEKEKDRTQRKDFIFVSARKREAFCQLLQLMKNKHSKQDEPDMISVFIGTWNMGSVPPPKNVTSWFTSKGLGKTLDEVTVTIPHDIYVFGTQENSVGDREWLDLLRGGLKELTDLDYRPIAMQSLWNIKVAVLVKPEHENRISHVSTSSVKTGIANTLGNKGAVGVSFMFNGTSFGFVNCHLTSGNEKTARRNQNYLDILRLLSLGDRQLNAFDISLRFTHLFWFGDLNYRLDMDIQEILNYISRKEFEPLLRVDQLNLEREKHKVFLRFSEEEISFPPTYRYERGSRDTYAWHKQKPTGVRTNVPSWCDRILWKSYPETHIICNSYGCTDDIVTSDHSPVFGTFEVGVTSQFISKKGLSKTSDQAYIEFESIEAIVKTASRTKFFIEFYSTCLEEYKKSFENDAQSSDNINFLKVQWSSRQLPTLKPILADIEYLQDQHLLLTVKSMDGYESYGECVVALKSMIGSTAQQFLTFLSHRGEETGNIRGSMKVRVPTERLGTRERLYEWISIDKDEAGAKSKAPSVSRGSQEPRSGSRKPAFTEASCPLSRLFEEPEKPPPTGRPPAPPRAAPREEPLTPRLKPEGAPEPEGVAAPPPKNSFNNPAYYVLEGVPHQLLPPEPPSPARAPVPSATKNKVAITVPAPQLGHHRHPRVGEGSSSDEESGGTLPPPDFPPPPLPDSAIFLPPSLDPLPGPVVRGRGGAEARGPPPPKAHPRPPLPPGPSPASTFLGEVASGDDRSCSVLQMAKTLSEVDYAPAGPARSALLPGPLELQPPRGLPSDYGRPLSFPPPRIRESIQEDLAEEAPCLQGGRASGLGEAGMSAWLRAIGLERYEEGLVHNGWDDLEFLSDITEEDLEEAGVQDPAHKRLLLDTLQLSK
# Variants of: B1
# Details: with epha2_human EPHA2, P29317
# epha2_human EPHA2, P29317, sequence (P29317 whole entry): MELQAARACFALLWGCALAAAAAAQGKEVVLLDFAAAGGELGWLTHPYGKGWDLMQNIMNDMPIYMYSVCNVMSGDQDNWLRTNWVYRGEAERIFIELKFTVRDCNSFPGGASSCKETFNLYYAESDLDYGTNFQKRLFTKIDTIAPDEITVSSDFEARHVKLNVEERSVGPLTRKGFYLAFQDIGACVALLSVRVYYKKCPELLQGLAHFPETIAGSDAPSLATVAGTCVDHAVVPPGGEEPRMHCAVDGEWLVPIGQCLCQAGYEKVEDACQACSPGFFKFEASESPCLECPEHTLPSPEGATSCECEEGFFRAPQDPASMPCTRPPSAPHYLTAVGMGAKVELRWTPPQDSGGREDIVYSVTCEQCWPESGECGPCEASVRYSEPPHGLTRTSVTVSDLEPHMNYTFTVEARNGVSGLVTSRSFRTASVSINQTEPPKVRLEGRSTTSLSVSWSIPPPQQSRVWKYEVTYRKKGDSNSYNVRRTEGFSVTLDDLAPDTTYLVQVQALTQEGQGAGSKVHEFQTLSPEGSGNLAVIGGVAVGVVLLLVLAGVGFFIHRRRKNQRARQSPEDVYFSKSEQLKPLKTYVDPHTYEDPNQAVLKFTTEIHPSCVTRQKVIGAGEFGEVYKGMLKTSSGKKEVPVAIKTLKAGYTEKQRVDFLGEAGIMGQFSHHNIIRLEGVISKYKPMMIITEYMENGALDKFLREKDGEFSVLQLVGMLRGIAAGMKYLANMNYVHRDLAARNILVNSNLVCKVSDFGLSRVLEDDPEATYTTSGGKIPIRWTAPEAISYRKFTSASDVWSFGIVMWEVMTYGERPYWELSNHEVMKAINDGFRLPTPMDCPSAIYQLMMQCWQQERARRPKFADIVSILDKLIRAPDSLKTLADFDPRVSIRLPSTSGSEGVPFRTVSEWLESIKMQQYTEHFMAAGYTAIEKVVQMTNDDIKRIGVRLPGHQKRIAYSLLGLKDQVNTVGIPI
row,effect of a mutation on the interaction,Variant
1,increasing interaction,H1219S

# Variants of: B1
# Details: with epha2_human EPHA2, P29317
# Remark: another data set of the same source
row,effect of a mutation on the interaction,Variant
1,disrupting interaction,D1223A;D1224A
